Holding throughout (assay): IEDB peptide-MHC binding, purified MHC/competitive/radioactivity; ≥ and ≤ were set here for values at or beyond the usual limits of such assays
Common to all, as to conditions: source organism: Homo sapiens

Assay [1] addresses HLA-A*11:01.
Assay [2] deals with HLA-A*02:01.
The target of assay [3] is HLA-A*03:01.
Assay [4] addresses HLA-A*30:01.
Assay [5] deals with HLA-A*01:01.
The target of assay [6] is HLA-A*33:01.
Assay [7] has as its target HLA-A*31:01.
The target in assay [8] is HLA-A*68:01.
Assay [9] addresses HLA-B*08:01.
Assay [10] has as its target HLA-B*27:05.

A word on the IC50: it is the concentration that inhibits the measured activity by half.

With KVKIPVAIKTS, the IC50 was 11.4 µM in [1], no less than 20 µM in [2] and 0.508 µM in assay [3].

Regarding KIPVAIKTSPK, the IC50 in [1] is 0.862 µM; in assay [2] it was no less than 20 µM; in assay [3], 0.253 µM.

In the case of IPVAIKTSPKA, the IC50 in [1], in assay [2] and in assay [3] was no less than 20 µM in each case.

For KTSPKANKEI, the IC50 in assay [1], in [2] and in assay [3] was no less than 20 µM in each case.

For the sequence PVAIKTSP, the IC50 in [1], in assay [2] and in assay [3] was no less than 20 µM each time.

On to IKTSPKANKE, for which the IC50 in assay [1], in assay [2] and in [3] was no less than 20 µM each time.

For KVKIPVAIKT, the IC50 in assay [1] is 10.2 µM; in assay [2], no less than 20 µM; in assay [3], 0.397 µM.

With VAIKTSPKANK, the IC50 in assay [1] was 1.63 µM; in assay [2], no less than 20 µM; in [3], 1.85 µM.

With PVAIKTSPKA, the IC50 in [1] is 11.6 µM; in [2], no less than 20 µM; in [3], 9.32 µM.

For AIKTSPKANK, the values for the IC50 in assay [1], in [2] and in [3] were 4.65 µM, no less than 20 µM and 0.584 µM, respectively.

Turning to VKIPVAIKTS, the 50% inhibitory concentration (IC50) in [1], in [2] and in assay [3] was no less than 20 µM throughout.

KTSPKANK: the IC50 was 1.69 µM in assay [1], no less than 20 µM in [2] and 0.679 µM in assay [3].

Regarding AIKTSPKAN, the IC50 in [1], in assay [2] and in assay [3] was no less than 20 µM each time.

In the case of AIKTSPKANKE, the IC50 is 9.92 µM in [1], no less than 20 µM in [2] and 1.59 µM in [3].

As to KIPVAIKTS, the IC50 in assay [1], in [2] and in assay [3] was no less than 20 µM throughout.

As for AIKTSPKA, the IC50 in assay [1], in assay [2] and in assay [3] was no less than 20 µM each time.

KIPVAIKTSP: the IC50 in assay [1], in [2] and in [3] was no less than 20 µM throughout.

Regarding IPVAIKTS, the IC50 in [1], in assay [2] and in assay [3] was no less than 20 µM in each case.

Consider GRAKLLGAEEK, for which the IC50 in assay [1] is no less than 50 µM; in assay [2], no less than 50 µM; in assay [4], no less than 50 µM; in [5], no less than 50 µM; in [6] it was no less than 50 µM; in [7], 4.86 µM. Further, the IC50 was 42.9 µM in assay [3], no less than 50 µM in assay [8], no less than 50 µM in assay [9] and 0.0438 µM in [10].

On to KITDFGLAK, for which the IC50 in [1] turned out to be 0.133 µM.

Consider KTSPKANKEIL, for which the IC50 in assay [1], in [2] and in [3] was no less than 20 µM in each case.

Regarding LAKLLGAEEK, the IC50 in [1] is no less than 50 µM; in assay [2], no less than 50 µM; in [4], 37.3 µM; in [5] it was no less than 50 µM; in assay [6], 20.3 µM; in assay [7], 29.9 µM. The IC50 in assay [3] is 43.5 µM; in [8], 2.01 µM; in assay [9], no less than 50 µM; in assay [10], no less than 50 µM.

Take VAIKTSPKA: the IC50 in [1], in assay [2] and in assay [3] was no less than 20 µM throughout.

As to KIPVAIKT, the IC50 in assay [1], in assay [2] and in [3] was no less than 20 µM throughout.

With RAKLLGAEEK, the IC50 in assay [1] is 21.7 µM; in assay [2], no less than 50 µM; in assay [4], 1.77 µM; in assay [5] it was no less than 50 µM; in assay [6], 35.6 µM; in [7], 0.817 µM. The IC50 in assay [3] is 6.56 µM; in assay [8], 28.9 µM; in assay [9], no less than 50 µM; in [10], 10.5 µM.

Take GLAKLLGAEEK: the half-maximal inhibitory concentration (IC50) in [1] was no less than 50 µM; in assay [2], no less than 50 µM; in assay [4], no less than 50 µM; in [5], no less than 50 µM; in assay [6], no less than 50 µM; in assay [7], 1.06 µM. Further, the IC50 in assay [3] was 0.664 µM; in [8] it was no less than 50 µM; in assay [9], 3.37 µM; in assay [10] it was 14.7 µM.

Take IKTSPKAN: the IC50 in [1], in [2] and in assay [3] was no less than 20 µM throughout.

For FGLAKLLGA, the IC50 is no less than 50 µM in assay [1]; 0.107 µM in [2]; 8.77 µM in [4]; no less than 50 µM in [5]; no less than 50 µM in [6]; 8.45 µM in assay [7]. The IC50 was no less than 50 µM in [3], no less than 50 µM in assay [8], 0.0266 µM in [9] and 3.7 µM in [10].

For the sequence VAIKTSPK, the IC50 in assay [1] is 1.98 µM; in assay [2], no less than 20 µM; in [3], 3.68 µM.

As to PVAIKTSPKAN, the IC50 was 6.43 µM in [1], no less than 20 µM in assay [2] and 4.5 µM in assay [3].

For the sequence VAIKTSPKAN, the IC50 in [1], in assay [2] and in [3] was no less than 20 µM in each case.

In the case of VKIPVAIKTSP, the IC50 in [1], in assay [2] and in assay [3] was no less than 20 µM in each case.

On to HVKITDFGL, for which the IC50 in [1] was no less than 50 µM; in assay [2] it was no less than 50 µM; in assay [4], 7.63 µM; in [5], no less than 50 µM; in [6] it was 6.53 µM; in assay [7], 4.67 µM. Besides, the IC50 is no less than 50 µM in assay [3], no less than 50 µM in assay [8], 0.475 µM in assay [9] and 41.3 µM in assay [10].

For the sequence PVAIKTSPK, the IC50 in assay [1] is 0.782 µM; in [2] it was no less than 20 µM; in [3] it was 0.529 µM.

With IKTSPKANK, the IC50 in [1] is no less than 20 µM; in assay [2], no less than 20 µM; in [3], 16.5 µM.

As for VKIPVAIKT, the IC50 in [1], in assay [2] and in [3] was no less than 20 µM in each case.

As for IKTSPKANKEI, the IC50 in [1], in assay [2] and in assay [3] was no less than 20 µM each time.

As to EKVKIPVAIKT, the half-inhibitory concentration (IC50) was 15.1 µM in assay [1], no less than 20 µM in [2] and 11.2 µM in assay [3].

Regarding IPVAIKTSPK, the figures for the IC50 in assay [1], in assay [2] and in assay [3] were 3.35 µM, no less than 20 µM and 1.66 µM, respectively.

The values above are taken from the Immune Epitope Database (IEDB).
